# Source: publication PMC5718613
# Target: S. aureus flotillin (FloA), fused to T25 or T18 fragments of an adenylate cyclase (S. aureus)
# Experiment: two-hybrid; bacterial two-hybrid in E. coli BTH101; FloA and T7SS membrane proteins fused C- and N-terminally with T18 and T25 fragments of adenylate cyclase; X-Gal plates (48 h, 30°C) and β-galactosidase activity in Miller Units; a 700 Miller Unit threshold defines positive and negative signals
# Sequence of S. aureus flotillin (FloA), fused to T25 or T18 fragments of an adenylate cyclase (S. aureus) (A6QHB6 whole entry, the tested form may be a part): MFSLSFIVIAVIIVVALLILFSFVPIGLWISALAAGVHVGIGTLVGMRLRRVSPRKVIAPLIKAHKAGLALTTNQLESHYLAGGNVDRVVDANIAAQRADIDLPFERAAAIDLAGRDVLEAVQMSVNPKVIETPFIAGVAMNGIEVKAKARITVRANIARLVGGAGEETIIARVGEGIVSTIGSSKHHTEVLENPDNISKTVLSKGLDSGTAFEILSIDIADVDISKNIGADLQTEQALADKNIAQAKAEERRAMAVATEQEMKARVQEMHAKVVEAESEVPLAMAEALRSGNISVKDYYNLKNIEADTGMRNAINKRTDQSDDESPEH
substance,measurement,value
"EssB, fused to T25 or T18 fragments of an adenylate cyclase (from UniProt Q2G185 1-444) (natural protein)",β-galactosidase activity (two-hybrid signal),> 2000 Miller Units
